Experimental data: patent US20140178854A1

Target: gp70 env protein of amphotropic MLV (4070A envelope), on purified viral particles (amphotropic murine leukemia virus (4070A envelope))
Assay: ELISA on plate-bound MLV, dilution factor 156250, Exp072-DTV Plate 1

Sequence of gp70 env protein of amphotropic MLV (4070A envelope), on purified viral particles (amphotropic murine leukemia virus (4070A envelope)) (P21995 whole entry): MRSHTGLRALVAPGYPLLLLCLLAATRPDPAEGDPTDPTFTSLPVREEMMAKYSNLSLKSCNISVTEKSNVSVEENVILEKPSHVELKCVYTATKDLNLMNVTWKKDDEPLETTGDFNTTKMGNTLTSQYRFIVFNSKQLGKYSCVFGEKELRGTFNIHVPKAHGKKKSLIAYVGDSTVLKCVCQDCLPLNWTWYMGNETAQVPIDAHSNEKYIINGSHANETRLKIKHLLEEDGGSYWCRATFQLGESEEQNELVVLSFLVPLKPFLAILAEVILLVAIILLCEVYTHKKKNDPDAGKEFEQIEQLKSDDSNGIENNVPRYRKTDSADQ

Question: For “83A25 monoclonal antibody (rat IgG2a, anti-gp70)”, which Mean OD is on record?
Answer: 0.116 OD
